Among the data in patent publication US6670183 are sites/cell and Kd values, retold here.

In assay [1] the target is GP88 cell surface receptors on CCL64 mink lung epithelial cells (mink). The assay is described as follows: Scatchard analysis, 125I-rGP88 on CCL64 cells; high affinity class of sites.
The target is the same in assay [2]. Nature of the assay: Scatchard analysis, 125I-rGP88 displaced by cold rGP88 on CCL64 cells in suspension; high affinity class of sites.
The target is the same in assay [3]. The assay is described as follows: Scatchard analysis, 125I-rGP88 on CCL64 cells; low affinity class of sites.
The target is the same in assay [4]. The assay is described as follows: Scatchard analysis, 125I-rGP88 displaced by cold rGP88 on CCL64 cells in suspension; low affinity class of sites.

For orientation: Kd means the equilibrium constant for the complex coming apart. Lower therefore signals a tighter complex.

B1: recombinant GP88 (rGP88), mouse GP88 expressed in baculovirus infected Sf9 insect cells (ligand)
chain: TQCPDGQFCPVACCLDQGGANYSCCNPLLDTWPRITSHHLDGSCQTHGHCPAGYSCLLTVSGTSSCCPFSKGVSCGDGYHCCPQGFHCSADGKSCFQMSDNPLGAVQCPGSQFECPDSATCCIMVDGSWGCCPMPQASCCEDRVHCCPHGASCDLVHTRCVSPTGTHTLLKKFPAQKTNSAVSLPFSVVCPDAKTQCPDDSTCCELPTGKYGCCPMPNAICCSDHLHCCPQDTVCDLIQSKCLSKNYTTDLLTKLPGYPVKEVKCDMEVSCPEGYTCCRLNTGAWGCCPFAKAVCCDDHIHCCPAGFQCHTEKGTCEMGILQVGWMKKVIAPLRLPDPQILKSDTPCDDFTRCPTNNTCCKLNSGDWGCCPIPEAVCCSDNQHCCPQGFTCLAQGYCQKGDTMVAGLEKIPARQTTPLQIGDIGCDQHTSCPVGQTCCPSLKGSWACCQLPHAVCCEDRQHCCPAGYTCNVKARTCEKDVDFIQPPVLLTLGPKVGNVECGEGHFCHDNQTCCKDSAGVWACCPYLKGVCCRDGRHCCPGGFHCSARGTKCLRKKIPRWDMFLRDPVPRPLL
modifications: the labelled form is 125I-iodinated by the chloramine T method (residues not stated)
Regarding B1, the sites/cell in assay [1] amounted to 560 sites/cell; in assay [3] it was 17000 sites/cell. Besides, the Kd in assay [2] was 0.043 nM; in assay [4], 3.9 nM.
